This is an account of results in US6955900B1, “Methods for producing polypeptide binding sites, monoclonal antibodies and compositions thereof” (The Scripps Research Institute, priority 1993, dated 2005).

Like-named read-outs stand apart in the source and are kept apart here. Bridge positions count the residues as written; N and C are the ends. Ends that are not written are not given here.

The target of experiment [1] is T1, αvβ3 (Homo sapiens, UniProt P05106+P06756).
T1 construct: human placentas were obtained, cut into small pieces and extracted; from tissue
T1 sequence (P06756 31-889 limits assumed): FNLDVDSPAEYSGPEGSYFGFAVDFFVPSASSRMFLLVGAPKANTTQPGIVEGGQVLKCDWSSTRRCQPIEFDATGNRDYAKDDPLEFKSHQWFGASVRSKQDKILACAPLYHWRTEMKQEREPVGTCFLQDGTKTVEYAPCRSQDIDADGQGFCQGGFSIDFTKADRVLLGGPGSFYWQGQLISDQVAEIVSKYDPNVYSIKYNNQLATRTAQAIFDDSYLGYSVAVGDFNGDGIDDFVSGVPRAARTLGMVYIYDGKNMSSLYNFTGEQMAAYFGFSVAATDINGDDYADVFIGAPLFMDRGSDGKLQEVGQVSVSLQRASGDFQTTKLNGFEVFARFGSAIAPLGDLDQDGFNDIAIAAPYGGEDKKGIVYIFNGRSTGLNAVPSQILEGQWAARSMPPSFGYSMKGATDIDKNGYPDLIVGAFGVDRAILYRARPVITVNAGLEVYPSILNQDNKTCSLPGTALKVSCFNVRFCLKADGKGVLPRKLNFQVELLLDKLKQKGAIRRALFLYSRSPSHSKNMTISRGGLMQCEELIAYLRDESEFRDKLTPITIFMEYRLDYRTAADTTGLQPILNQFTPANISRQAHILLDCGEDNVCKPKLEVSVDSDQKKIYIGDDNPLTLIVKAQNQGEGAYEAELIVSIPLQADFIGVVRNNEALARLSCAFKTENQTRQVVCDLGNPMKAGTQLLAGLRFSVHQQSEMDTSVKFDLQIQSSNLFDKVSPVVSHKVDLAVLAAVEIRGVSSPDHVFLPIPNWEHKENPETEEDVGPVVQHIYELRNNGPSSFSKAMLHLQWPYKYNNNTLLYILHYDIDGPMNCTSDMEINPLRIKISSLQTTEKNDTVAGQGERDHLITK
T1 sequence (P06756 891-1048 partner limits assumed): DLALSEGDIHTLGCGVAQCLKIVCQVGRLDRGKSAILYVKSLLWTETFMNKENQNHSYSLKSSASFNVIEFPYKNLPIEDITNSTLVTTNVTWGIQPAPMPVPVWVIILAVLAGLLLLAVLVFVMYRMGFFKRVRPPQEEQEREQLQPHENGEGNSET
T1 sequence (P05106 27-788): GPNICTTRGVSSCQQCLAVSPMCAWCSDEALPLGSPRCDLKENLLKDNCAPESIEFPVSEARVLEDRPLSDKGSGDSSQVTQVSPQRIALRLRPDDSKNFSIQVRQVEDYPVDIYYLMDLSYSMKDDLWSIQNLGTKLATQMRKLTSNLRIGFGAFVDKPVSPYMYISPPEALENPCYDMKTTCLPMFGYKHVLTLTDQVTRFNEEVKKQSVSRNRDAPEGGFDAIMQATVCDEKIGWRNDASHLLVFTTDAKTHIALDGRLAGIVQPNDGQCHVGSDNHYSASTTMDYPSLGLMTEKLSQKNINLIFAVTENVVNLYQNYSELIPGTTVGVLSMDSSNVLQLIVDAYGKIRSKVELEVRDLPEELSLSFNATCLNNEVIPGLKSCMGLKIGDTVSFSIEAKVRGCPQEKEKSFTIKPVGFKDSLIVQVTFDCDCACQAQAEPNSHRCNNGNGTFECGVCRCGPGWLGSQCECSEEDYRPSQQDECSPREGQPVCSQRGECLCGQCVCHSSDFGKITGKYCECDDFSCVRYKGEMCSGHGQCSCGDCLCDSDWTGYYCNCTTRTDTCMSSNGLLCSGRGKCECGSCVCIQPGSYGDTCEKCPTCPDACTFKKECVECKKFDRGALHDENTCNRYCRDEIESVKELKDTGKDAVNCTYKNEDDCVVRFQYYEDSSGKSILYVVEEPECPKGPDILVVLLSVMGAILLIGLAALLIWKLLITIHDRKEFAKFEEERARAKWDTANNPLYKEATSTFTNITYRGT
In words: purified ligand-receptor binding assay, inhibition of 125I-vitronectin binding to αvβ3. The following applies: for blocking of vitronectin (ligand) binding to αvβ3: result in words. On the procedure:
(§1) The method for these binding studies has been described by Barbas et al., Proc. Natl. Acad. Sci., USA, 90:10003-10007 (1993) and Smith et al., J. Biol. Chem., 265:11008-11013 (1990), the disclosures of which are hereby incorporated by reference.
(§2) Briefly, selected purified integrins were separately immobilized in Titertek microtiter wells at a coating concentration of 50 ng per well. After incubation for 18 hr at 4° C., non-specific binding sites on the plate were blocked with 10 mg/ml of bovine serum albumin in Tris-buffered saline. For inhibition studies, a range of antibody was tested for the ability to block the binding of ^125I-vitronectin to αvβ3 and ^125I-fibrinogen to αIIbβ3. The choice to use two different ligands in comparing the inhibitory activity of antibodies was a compromise based on a complicated series of circumstances. […] In contrast, Ca^2+ is essential for the rapid binding of fibrinogen to αIIbβ3. […] Therefore, the optimal ligand was selected for each integrin. This corresponds to vitronectin for αvβ3 and fibrinogen for αIIbβ3. Radiolabeled ligands were used at concentrations of 1 nM and binding was challenged with unlabeled antibody.
(§3) Following a three hour incubation free ligand was removed by washing and bound ligand was detected by gamma counting. The data from this analysis were highly reproducible with the error between data points typically below 11%. Data are expressed as the average of triplicate data points. All experiments were repeated at least four times.

For experiment [2], the target named is T2, αIIbβ3 (Homo sapiens, UniProt P05106+P08514). Description: purified ligand-receptor binding assay, inhibition of 125I-fibrinogen binding to αIIbβ3. Also noted: from tissue; the procedure itself is in U.S. Pat. No. 5,114,842. The following applies: for blocking of fibrinogen (ligand) binding to gpIIb/IIIa (αIIbβ3): result in words. How it is done: as §1, §2, §3

In experiment [3] the target is T3, gpIIb/IIIa (Homo sapiens, UniProt P05106+P08514).
T3 construct: from tissue; the procedure itself is in U.S. Pat. No. 5,114,842
In words: gpIIb/IIIa sandwich ELISA on fibrinogen-coated plates. The experiment is classed as binding. On the procedure: A gpIIb/IIIa sandwich ELISA assay was performed on 10 ug/ml (100 ul) of fibrinogen-coated plates. After blocking the plate as described above, the RGD-expressing, Fab, Mab 19, was admixed with purified gpIIb/IIIa receptor. After allowing the RGD-expressing Fab and receptor admixture to immunoreact with the fibrinogen, the wells were washed and the amount of bound gpIIb/IIIa was determined using an anti-IIIa antibody.
(An ELISA detects its analyte on a solid surface through an enzyme-linked reagent.)

Experiment [4] relates to platelets. In words: platelet aggregation assay. The experiment is classed as cell-based, human. How it is done:
Platelet aggregation assays were performed as described in U.S. Pat. No. 5,114,842. […] When the concentration of the RGDC2-binding site Fab was decreased by half, the amount of platelet aggregation increased similarly and thus the amount of light transmitted increased. […] All of the initial selection and characterization of the semi-synthetic Fab antibodies of this invention relied largely upon the use of purified integrins. Since the MTF-antibodies blocked the function of αIIbβ3 and have potential therapeutic use in the prevention of thrombosis, the ability of recombinant Fabs to block platelet aggregation was measured as described in Example 4. Washed platelets (1×10^8) were placed in Tyrode's buffer containing 2 mM Ca^2+ and 100 ug/ml of fibrinogen and aggregation was stimulated by addition of 20 uM ADP. Aggregation was measured as light transmission through the platelet suspension using a Scienceo aggregometer.

Experiment [5] concerns the target T1, αvβ3. In words: ELISA on αv/β3-coated wells. The experiment is classed as binding. The following applies: result in words, compared to BSA background. On the procedure: (§4) Preliminary ELISA assays were performed to first characterize the binding specificity of the panned phage monoclonal antibodies prepared above toward related integrins. For ELISA, 1 ug/well of the purified VNRs prepared in Example 3A was separately admixed to individual wells of a microtiter plate and maintained at 4 C overnight to allow the protein solution to adhere to the walls of the well. After the maintenance period, the wells were washed once with PBS and thereafter maintained with a solution of 3% BSA to block nonspecific sites on the wells. The plates were maintained at 37 C for 1 hour after which time the plates were inverted and shaked to remove the BSA solution. Soluble Fab heterodimers expressing the synthetic binding site proteins-prepared in Example 3B were then admixed separately to each well and maintained at 37 C for 1 hour to form a immunoreaction products. Following the maintenance period, the wells were washed 10 times with PBS to remove unbound soluble antibody and then maintained with a secondary goat anti-human FAB conjugated to alkaline phosphatase diluted in PBS containing 1% BSA. The wells were maintained at 37 C for 1 hour after which the wells were washed 10 times with PBS followed by development with p-nitrophenyl phosphate.

Experiment [6] deals with T4, αvβ5 (Homo sapiens, UniProt P06756+P18084).
T4 construct: human placentas were obtained, cut into small pieces and extracted; from tissue
T4 sequence (P06756 31-889 limits assumed): as the sequence (P06756 31-889 limits assumed) above
T4 sequence (P06756 891-1048 partner limits assumed): as the sequence (P06756 891-1048 partner limits assumed) above
T4 sequence (P18084 24-799): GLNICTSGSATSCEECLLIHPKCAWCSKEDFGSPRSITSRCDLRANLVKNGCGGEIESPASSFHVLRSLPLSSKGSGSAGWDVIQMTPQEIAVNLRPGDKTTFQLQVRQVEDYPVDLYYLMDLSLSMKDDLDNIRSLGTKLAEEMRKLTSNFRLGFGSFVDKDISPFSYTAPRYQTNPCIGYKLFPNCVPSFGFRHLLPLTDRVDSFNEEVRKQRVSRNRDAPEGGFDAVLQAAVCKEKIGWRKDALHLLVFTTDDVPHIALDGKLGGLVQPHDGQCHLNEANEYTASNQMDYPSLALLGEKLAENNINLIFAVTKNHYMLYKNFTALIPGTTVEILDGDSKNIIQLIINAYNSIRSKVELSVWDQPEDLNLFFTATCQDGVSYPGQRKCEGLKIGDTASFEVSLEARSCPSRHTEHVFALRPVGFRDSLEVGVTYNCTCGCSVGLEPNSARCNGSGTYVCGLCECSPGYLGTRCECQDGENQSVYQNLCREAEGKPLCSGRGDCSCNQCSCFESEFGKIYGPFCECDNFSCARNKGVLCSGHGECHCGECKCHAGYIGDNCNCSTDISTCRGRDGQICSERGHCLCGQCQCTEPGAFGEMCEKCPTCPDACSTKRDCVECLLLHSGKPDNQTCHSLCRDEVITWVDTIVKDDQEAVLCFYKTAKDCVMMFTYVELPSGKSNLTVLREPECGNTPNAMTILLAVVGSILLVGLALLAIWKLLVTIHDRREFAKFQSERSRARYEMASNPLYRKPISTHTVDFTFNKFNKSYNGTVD
Description: ELISA on αv/β5-coated wells. It is filed as binding. The note with it: result in words, compared to BSA background. On the procedure:
as §4

Experiment [7] deals with T3, gpIIb/IIIa. Description: ELISA on gpIIb/IIIa-coated surfaces. The note with it: result in words. The experiment is classed as binding.
Experiment [8] addresses T4, αvβ5. In words: purified ligand-receptor binding assay, inhibition of 125I-vitronectin binding to αvβ5. The following applies: result in words. How it is done:
To determine if the CDR was an appropriate vehicle for displaying and identifying inhibitory peptide motifs, the ability of synthetic peptides derived from the sequence of Fab 9 to block ligand binding to αvβ3, αvβ5 and αIIbβ3 was measured. One peptide synthesized as described below for use in this assay contained a RGD motif positioned on the apex of the CDR3 loop but lacked the remaining flanking regions of the CDR3 and rest of the heavy chain. The sequence of the peptide is listed in SEQ ID NO 12. A peptide having the same sequence but flanked by glycine residues to prevent cyclization was also prepared and has the amino acid residue sequence in SEQ ID NO 68. A longer peptide, having the amino acid residue sequence in SEQ ID NO 4 containing all of the amino acids in SEQ ID NO 12 along with flanking amino acid residues, was also prepared. These assays were performed in order to assess the ability of this particular peptide to inhibit the binding of a high affinity ligand to a receptor, namely the binding of vitronectin to αv/β3 or αv/β5 and fibrinogen to gpIIb/IIIa.
The synthetic peptides from Fab 9 were tested for the ability to antagonize αvβ3 and αIIbβ3 and αvβ5 in purified ligand-receptor binding assays performed as described in Example 5b. […]

For experiment [9], the target named is T2, αIIbβ3. In words: surface plasmon resonance (BIAcore), Fab binding to immobilized αIIbβ3. The following applies: using SPR. Also noted: from tissue; the procedure itself is in U.S. Pat. No. 5,114,842. On the procedure:
A comparison of absolute antibody affinities was then performed with surface plasmon resonance, which is a highly accurate means of assessing ligand affinities in real time. See, Altshuh et al., Biochem., 31:6298-6304 (1992); Chaiken et al., Anal. Biochem., 201:197-210 (1992); Eddowes, Biosensors, 3:1-15 (1987); Fagerstam et al., J. Chromatoar., 597:397-410 (1992); Johnsson et al., Anal. Biochem., 198:268-277 (1991); Karlsson et al., J. Immunol. Methods, 145:229-240 (1991); and VanCott et al., J. Immunol. Methods, 146:163-176 (1992), the disclosures of which are hereby incorporated by reference. SPR is a phenomena that occurs when incoming photons interact with electrons in a biosensor chip. […]
The association and dissociation rate constants (k1 and k−1) for semi-synthetic antibodies were obtained from BIAcore measurements as follows. […] At the end of the association phase the flow was changed to buffer without ligand and the change in response unit (RU) was measured as a function of time. […]
To obtain the association rate constant k1, an antibody was passed through the sensor chip containing unoccupied integrin and the response unit as a result of binding is again measured as a function of time. The association rate constant, k1, is calculated as shown in equation 2. k1=[((dRU/dt)/RU)−k−1]/L Equation 2 L is the concentration of ligand. […]
(Surface plasmon resonance follows binding to a sensor surface in real time, without labels.)

Experiment [10] addresses T2, αIIbβ3. The note with it: solid-phase radioligand binding assays, recently reported; cited from earlier work.
The mark [11] stands for this setting: listed as Fab 9-derived peptide in SEQ ID NO 68.

Consider “CSFGRGDIRNC (CSFGRGDIRNC-NH2; disulfide 1-11 (inferred); not fully specified) [circularized Fab 9-derived peptide]”, for which, in experiment [1] (listed as VnRB3-5-derived peptide), the “blocking of vitronectin (ligand) binding to αvβ3” value (“blocking of vitronectin … to αvβ3” below) is “inhibits”.

As for “peptides derived from HCDR3 of MTF-32: circular CSFGRTDQRNC (SEQ ID NO 71), linear GCSFGRTDQRNCY (SEQ ID NO 72) [peptide 32]”, the “blocking of vitronectin … to αvβ3” value in [1] is given as “did not interfere”. The “blocking of fibrinogen (ligand) binding to gpIIb/IIIa (αIIbβ3)” value (shortened to “blocking … to gpIIb/IIIa (αIIbβ3)”) in [2] is given as “blocked”.

Take “Mab 19: Fab-displayed RGDC2 binding site VGCGRLRGDDPWCYYMDV (SEQ ID NO 3) (Fab-displayed binding site)”: in [3], the “Fab concentration of maximal inhibition of gpIIb/IIIa binding to fibrinogen” value stood at 5 µM. For the same substance, the “blocking of gpIIb/IIIa binding to fibrinogen” value in experiment [3] (result in words) is given as “blocked the binding of gpIIb/IIIa to fibrinogen in a dose-dependent manner”. Besides, the “inhibition of platelet aggregation” value in [4] (6.6 uM purified soluble Fab, light transmission) was “inhibited the aggregation of platelets in a time-dependent manner”. Also, the “inhibition of platelet aggregation compared with murine Fab LIBS-1” value in experiment [4] (simultaneously performed assays) is listed as “equally effective”. Further, the “binding to αv/β3 (ELISA, immunoreaction)” value in experiment [5] is “not cross-react”. The “binding to αv/β5 (ELISA, immunoreaction)” value in experiment [6] was “not cross-react”. Besides, the “binding to gpIIb/IIIa (ELISA, immunoreaction)” value in [7] is on record as “specific for gpIIb/IIIa”.

For GSFGRGDIRNG [Lin-9], the “peptide concentration reaching maximal inhibition of binding to αv/β3” value in experiment [1] is on record as 10^−5 M. Moreover, the results for the “blocking of vitronectin … to αvβ3” value in experiment [1] and in [1] (setting [11]) were “inhibited” and “completely inhibited”, respectively. In [2], the “peptide concentration reaching maximal inhibition of binding to gpIIb/IIIa” value is 10^−5 M. Besides, the “blocking … to gpIIb/IIIa (αIIbβ3)” value was “inhibited” in experiment [2] and “completely inhibited” in experiment [2] (setting [11]). For the same substance, the “blocking of vitronectin binding to αvβ5” value in [8] is reported as “did not antagonize”; in experiment [8] (setting [11]), “No inhibition”.

For the substance “fibrinogen: natural high affinity ligand of αIIbβ3”, the entries for the “association rate constant for binding to αIIbβ3” value in [9] and in [10] were 600000 M⁻¹ s⁻¹ and 850000 M⁻¹ s⁻¹, respectively.

As for “peptides derived from HCDR3 of MTF-40: circular CSFGRNDSRNC (SEQ ID NO 69), linear GCSFGRNDSRNCY (SEQ ID NO 70) [peptide 40]”, the “blocking of vitronectin … to αvβ3” value in experiment [1] was “did not interfere”. For the same substance, the “blocking … to gpIIb/IIIa (αIIbβ3)” value in experiment [2] is on record as “blocked”.

Regarding “Mab 8: Fab-displayed RGDC2 binding site VGCPIPRGDWRECYYMDV (SEQ ID NO 8) (Fab-displayed binding site)”, the “binding to αv/β3 (ELISA, immunoreaction)” value in experiment [5] was “bound specifically”. The “binding to αv/β5 (ELISA, immunoreaction)” value in experiment [6] is recorded as “not to αv/β5”.
